Data from patent US20260183373A1 (Genentech, published 2026).
Where two headings read alike, the source gives them in different places.

B1: Fab-NTF(LC)-1 format, MMP3-D4K-4, RF61-D (Fab)
heavy: QLQLQESGPGLVKPSETLSLTCTVSGGSISRGSHYWGWIRQPPGKGLEWIGSIYYSGNTYFNPSLKSRVTISVDTSKNQFSLKLSSVTAADTAVYYCARLGPDDYTLDGMDVWGQGTTVTVSSASTKGPSVFPLAPSSKSTSGGTAALGCLVKDYFPEPVTVSWNSGALTSGVHTFPAVLQSSGLYSLSSVVTVPSSSLGTQTYICNVNHKPSNTKVDKKVEPKSCDKTHTDYKDDDDK
light: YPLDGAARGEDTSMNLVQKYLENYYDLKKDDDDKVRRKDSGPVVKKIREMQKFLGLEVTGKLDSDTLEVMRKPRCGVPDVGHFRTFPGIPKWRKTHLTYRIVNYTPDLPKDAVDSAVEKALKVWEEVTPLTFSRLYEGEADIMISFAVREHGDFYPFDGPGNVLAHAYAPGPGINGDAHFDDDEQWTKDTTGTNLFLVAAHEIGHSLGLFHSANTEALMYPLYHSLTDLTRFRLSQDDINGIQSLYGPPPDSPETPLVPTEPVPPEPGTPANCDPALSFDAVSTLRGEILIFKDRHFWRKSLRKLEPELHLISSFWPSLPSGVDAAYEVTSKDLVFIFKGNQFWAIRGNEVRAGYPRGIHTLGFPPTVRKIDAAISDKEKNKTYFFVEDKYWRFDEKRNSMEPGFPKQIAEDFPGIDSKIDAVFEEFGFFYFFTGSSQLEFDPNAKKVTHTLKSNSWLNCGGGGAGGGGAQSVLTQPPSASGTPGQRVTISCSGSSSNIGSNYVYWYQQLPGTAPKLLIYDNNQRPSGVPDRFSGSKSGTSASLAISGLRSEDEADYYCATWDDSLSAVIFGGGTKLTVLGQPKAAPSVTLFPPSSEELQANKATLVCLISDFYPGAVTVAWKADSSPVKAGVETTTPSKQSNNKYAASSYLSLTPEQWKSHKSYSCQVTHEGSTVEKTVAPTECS
notes: MMP3-D4K-4 fused to the N-terminus of the light chain; also called RF61-D Fab fusion
B2: IgG-CTF-2 format, neprolysin, crenezumab G33S(HC) (antibody)
heavy: not shown
light: DIVMTQSPLSLPVTPGEPASISCRSSQSLVYSNGDTYLHWYLQKPGQSPQLLIYKVSNRFSGVPDRFSGSGSGTDFTLKISRVEAEDVGVYYCSQSTHVPWTFGQGTKVEIKRTVAAPSVFIFPPSDEQLKSGTASVVCLLNNFYPREAKVQWKVDNALQSGNSQESVTEQDSKDSTYSLSSTLTLSKADYEKHKVYACEVTHQGLSSPVTKSFNRGEC
notes: Variant of m9
B3: IgG-CTF-2 format, neprolysin, solanezumab (antibody)
heavy: not shown
light: DVVMTQSPLSLPVTLGQPASISCRSSQSLIYSDGNAYLHWFLQKPGQSPRLLIYKVSNRFSGVPDRFSGSGSGTDFTLKISRVEAEDVGVYYCSQSTHVPWTFGQGTKVEIKRTVAAPSVFIFPPSDEQLKSGTASVVCLLNNFYPREAKVQWKVDNALQSGNSQESVTEQDSKDSTYSLSSTLTLSKADYEKHKVYACEVTHQGLSSPVTKSFNRGEC
notes: Human IgG1 with NEP fused to the C-terminus of both heavy chains; also called solanezumab-NEP fusion
B4: IgG-CTF-2 format, neprolysin, crenezumab (antibody)
heavy: not shown
light: DIVMTQSPLSLPVTPGEPASISCRSSQSLVYSNGDTYLHWYLQKPGQSPQLLIYKVSNRFSGVPDRFSGSGSGTDFTLKISRVEAEDVGVYYCSQSTHVPWTFGQGTKVEIKRTVAAPSVFIFPPSDEQLKSGTASVVCLLNNFYPREAKVQWKVDNALQSGNSQESVTEQDSKDSTYSLSSTLTLSKADYEKHKVYACEVTHQGLSSPVTKSFNRGEC
notes: Human IgG1 with NEP fused to the C-terminus of both heavy chains; also called crenezumab-NEP fusion
B5: IgG-CTF-2 format, neprolysin, crenezumab G33S(HC)/S56F(LC) (antibody)
heavy: not shown
light: DIVMTQSPLSLPVTPGEPASISCRSSQSLVYSNGDTYLHWYLQKPGQSPQLLIYKVSNRFFGVPDRFSGSGSGTDFTLKISRVEAEDVGVYYCSQSTHVPWTFGQGTKVEIKRTVAAPSVFIFPPSDEQLKSGTASVVCLLNNFYPREAKVQWKVDNALQSGNSQESVTEQDSKDSTYSLSSTLTLSKADYEKHKVYACEVTHQGLSSPVTKSFNRGEC
notes: Variant of m9
B6: anti-gD Control (antibody, human IgG1, kappa)
heavy chain with neprolysin fused to its C-terminus: not shown
light chain: DIQMTQSPSSLSASVGDRVTITCRASASVDSYGNSFIHWYQQKPGKAPKLLIYRASDLESGVPSRFSGSGSGTDFTLTISSLQPEDFATYYCQQNYADPFTFGQGTKVEIKRTVAAPSVFIFPPSDEQLKSGTASVVCLLNNFYPREAKVQWKVDNALQSGNSQESVTEQDSKDSTYSLSSTLTLSKADYEKHKVYACEVTHQGLSSPVTKSFNRGEC
B7: RF61 chimeric antibody variant R50D LC, S62P L95N T100aA D100cE M100eF HC (mouse IgG2a constant domains) (antibody, V domains shown)
VH: QLQLQESGPGLVKPSETLSLTCTVSGGSISRGSHYWGWIRQPPGKGLEWIGSIYYSGNTYFNPPLKSRVTISVDTSKNQFSLKLSSVTAADTAVYYCARNGPDDYALEGFDVWGQGTTVTVSS
VL: QSVLTQPPSASGTPGQRVTISCSGSSSNIGSNYVYWYQQLPGTAPKLLIYDNNQRPSGVPDRFSGSKSGTSASLAISGLRSEDEADYYCATWDDSLSAVIFGGGTKLTVL
notes: Round 3 variant, one of the eight; copies: 2 + 2
B8: RF61 chimeric antibody variant R50N LC, L95N D99H T100aA HC (mouse IgG2a constant domains) (antibody, V domains shown)
VH: QLQLQESGPGLVKPSETLSLTCTVSGGSISRGSHYWGWIRQPPGKGLEWIGSIYYSGNTYFNPSLKSRVTISVDTSKNQFSLKLSSVTAADTAVYYCARNGPDHYALDGMDVWGQGTTVTVSS
VL: QSVLTQPPSASGTPGQRVTISCSGSSSNIGSNYVYWYQQLPGTAPKLLIYNNNQRPSGVPDRFSGSKSGTSASLAISGLRSEDEADYYCATWDDSLSAVIFGGGTKLTVL
notes: as for B7
B9: RF61 chimeric antibody variant R50N Y34F LC, S62P D99H D100cE M100eF HC (mouse IgG2a constant domains) (antibody, V domains shown)
VH: QLQLQESGPGLVKPSETLSLTCTVSGGSISRGSHYWGWIRQPPGKGLEWIGSIYYSGNTYFNPPLKSRVTISVDTSKNQFSLKLSSVTAADTAVYYCARLGPDHYTLEGFDVWGQGTTVTVSS
VL: QSVLTQPPSASGTPGQRVTISCSGSSSNIGSNYVFWYQQLPGTAPKLLIYNNNQRPSGVPDRFSGSKSGTSASLAISGLRSEDEADYYCATWDDSLSAVIFGGGTKLTVL
notes: as for B7
B10: RF61 chimeric antibody variant R50D Y34F LC, S62P L95N D100cE M100eF HC (mouse IgG2a constant domains) (antibody, V domains shown)
VH: QLQLQESGPGLVKPSETLSLTCTVSGGSISRGSHYWGWIRQPPGKGLEWIGSIYYSGNTYFNPPLKSRVTISVDTSKNQFSLKLSSVTAADTAVYYCARNGPDDYTLEGFDVWGQGTTVTVSS
VL: QSVLTQPPSASGTPGQRVTISCSGSSSNIGSNYVFWYQQLPGTAPKLLIYDNNQRPSGVPDRFSGSKSGTSASLAISGLRSEDEADYYCATWDDSLSAVIFGGGTKLTVL
notes: as for B7
B11: RF61 chimeric antibody variant R50N LC, S62P L95N D99H T100aA D100cE M100eF HC (mouse IgG2a constant domains) (antibody, V domains shown)
VH: QLQLQESGPGLVKPSETLSLTCTVSGGSISRGSHYWGWIRQPPGKGLEWIGSIYYSGNTYFNPPLKSRVTISVDTSKNQFSLKLSSVTAADTAVYYCARNGPDHYALEGFDVWGQGTTVTVSS
VL: QSVLTQPPSASGTPGQRVTISCSGSSSNIGSNYVYWYQQLPGTAPKLLIYNNNQRPSGVPDRFSGSKSGTSASLAISGLRSEDEADYYCATWDDSLSAVIFGGGTKLTVL
notes: as for B7
B12: RF61 chimeric antibody variant R50D Y34F LC, S62P D99H M100eF HC (mouse IgG2a constant domains) (antibody, V domains shown)
VH: QLQLQESGPGLVKPSETLSLTCTVSGGSISRGSHYWGWIRQPPGKGLEWIGSIYYSGNTYFNPPLKSRVTISVDTSKNQFSLKLSSVTAADTAVYYCARLGPDHYTLDGFDVWGQGTTVTVSS
VL: QSVLTQPPSASGTPGQRVTISCSGSSSNIGSNYVFWYQQLPGTAPKLLIYDNNQRPSGVPDRFSGSKSGTSASLAISGLRSEDEADYYCATWDDSLSAVIFGGGTKLTVL
notes: as for B7

Assays:
[1] = target: T1, anti-HER2 antibody 4D5, IgG1 subtype; assay: SPR: 4D5 IgG1 captured on Protein L chip, RF61-MMP3 fusion constructs injected; monovalent affinity of the targeting arm
T1 construct: Captured on a Protein L chip as the IgG1 target of the RF61-MMP3 fusion constructs
Protocol: RF61 surface plasmon resonance: RF61 affinity for human IgG was assessed with a Biacore 8K+ or T200. For rounds one and two of affinity maturation, the Fc domain of human IgG1 was captured on a Series S Protein A chip according to the manufacturer's protocols. Serial dilutions of the RF61 Fab variants were prepared in HBS-P+ buffer. The dilutions were passed over the chip for 4 min, followed by a 5 min dissociation step. Variants were assessed using the response units at the point of late analyte binding normalized to Fc capture level. […] Serial dilutions of human IgG1 Fc in HBS-P+ were passed over the chip for 10 minutes, followed by a 6 min dissociation step. Affinity constants were obtained through kinetic fitting using the Biacore Evaluation Software (GE). […] A single 1000 nM concentration of each binding ablation variant was passed over the chip for 10 minutes, followed by a 6 min dissociation step. […] Serial dilutions of the RF61-MMP3 fusion constructs were prepared in HBS-P+ buffer. The dilutions were flowed over the chip for 3 min, followed by 8 min of dissociation. […] Affinity constants were determined as described above.

Aβ(1-40) [2] = target: T2, Aβ(1-40) (UniProt P05067 672-711); assay: cell-based or functional assay
Aβ(1-28) = target: T3, Aβ(1-28) (UniProt P05067 672-699); assay: SPR (Biacore T200): fusion captured on a protein A chip, Aβ(1-28) injected as analyte
T3 construct: domain: Aβ(1-28); also called amyloid-β 1-28
Protocol: Aβ surface plasmon resonance: Solution affinity constants for anti-Aβ antibodies were assessed on a Biacore™ T200. […] Affinity constants were obtained through kinetic fitting using the Biacore Evaluation Software.

Aβ(1-40) [3] = target: T2, Aβ(1-40); assay: cell-based or functional assay; remark: listed apart in the source
Aβ(1-42) [4] = target: T4, Aβ(1-42) (UniProt P05067 672-713); assay: cell-based or functional assay
Aβ(1-40) [5] = target: T2, Aβ(1-40); assay: cell-based or functional assay; remark: listed apart in the source
Aβ(1-42) [6] = target: T4, Aβ(1-42); assay: cell-based or functional assay; remark: listed apart in the source
human IgG1 Fc = target: T5, human IgG1 Fc (human, UniProt P01857-1 104-330 = IgG part, limits assumed); assay: SPR: chimeric antibody captured by anti-mouse antibody on CM5 chip, human IgG1 Fc injected
T5 construct: domain: Fc; also called Fc domain of human IgG1

| Binder | EC50 of Aβ(1-40) cleavage (intact Aβ by ELISA) (Aβ(1-40) [2]) | Kd (Aβ(1-28)) | koff (Aβ(1-28)) | kon (Aβ(1-28)) | binding result (human IgG1 Fc) | further results |
| --- | --- | --- | --- | --- | --- | --- |
| B1 |  |  |  |  |  | Kd [1]: 104 nM |
| B2 | 1.6 nM | 1.8 nM | 0.0013 s⁻¹ | 750000 M⁻¹ s⁻¹ |  |  |
| B3 | 3.9 nM | 0.5 nM | 0.00014 s⁻¹ | 300000 M⁻¹ s⁻¹ |  |  |
| B4 | 1.3 nM | 4.7 nM | 0.0041 s⁻¹ | 880000 M⁻¹ s⁻¹ |  | EC50 of Aβ(1-40) cleavage, fold lower than the solanezumab-NEP fusion (Aβ(1-40) [3]): 3 fold; potency of Aβ cleavage, fold over the non-targeted control (Aβ(1-40) [3]): ~15 fold; potency of Aβ cleavage, fold over the non-targeted control (Aβ(1-42) [4]): ~9 fold; EC50 of Aβ(1-40) cleavage (intact Aβ by ELISA) (Aβ(1-40) [5]): 1.1 nM; EC50 of Aβ(1-42) cleavage (intact Aβ by ELISA) (Aβ(1-42) [6]): 5 nM |
| B5 | 2.3 nM | 0.8 nM | 0.0006 s⁻¹ | 750000 M⁻¹ s⁻¹ |  |  |
| B6 | 11 nM |  |  |  |  |  |
| B7 |  |  |  |  | binds |  |
| B8 |  |  |  |  | binds |  |
| B9 |  |  |  |  | binds |  |
| B10 |  |  |  |  | binds |  |
| B11 |  |  |  |  | binds |  |
| B12 |  |  |  |  | binds |  |
